Measurements reported in patent publication US20190169232A1 (FEINSTEIN INSTITUTES FOR MEDICAL RESEARCH, published 2019).
Values belong to the binder of their own block, whether it stands above or below them.

Assays:
[1] = target: T1, C1q purified from pooled normal human sera (human, UniProt P02746 28-253; P02747 29-245); assay: SPR kinetics, C1q immobilised on a CM5 chip, HMGB1 redox form as analyte in a concentration series, 1:1 fit
T1 construct: mature; Bought from Complement Technology, purified from serum; It names no B or C chains; Biotinylated for the bead assay; also called human C1q; first component of complement
Description: A 1:1 mixture of N-hyrdoxysuccinimide and N-ethyl-N-(dimethyaminopropyl) carbodiimide was used to activate 2 flow-cells of the CM5 chip. […] The analyte (HMGB1) was diluted in 1× HBS-N+0.05% tween-20 buffer (filtered—0.22 um). Three redox states of HMGB1 were sequentially injected at a flow rate of 20 μl/min for 60 s at 25° C., the dissociation time was set for 3 minutes. […]

[2] = target: T1, C1q purified from pooled normal human …; assay: SPR (BIAcore T200), HMGB1 immobilized on a CM5 chip, C1q as analyte at 5 concentrations, 1:1 fit
Description: Surface Plasmon Resonance analysis (SPR): For real-time binding interaction studies, a BIAcore T200 instrument (GE Healthcare) was used. […] A 1:1 mixture of N-hydroxysuccinimide and N-ethyl-N-(dimethyaminopropyl) carbodiimide was used to activate 2 flow-cells of the CM5 chip. […] The analytes were diluted in 1× PBS+0.01% (vol/vol) tween-20 buffer. The analytes were sequentially injected at a flow rate of 30 μl/min for 60 s at 25° C. The KD was determined using the BIAcore evaluation software 2.0 (GE Healthcare) supposing a 1:1 binding ratio.

RAGE on human monocytes = target: T2, RAGE on human monocytes (human, UniProt Q15109 23-404); assay: proximity ligation assay on human monocytes, condition without C1q
T2 construct: whole, on cells

[3] = target: T3, Human recombinant RAGE (hrRAGE), soluble RAGE (human, UniProt Q15109 24-344, limits assumed); assay: SPR (data not shown)
T3 construct: Called soluble RAGE (sRAGE) in the SPR and bead experiments; also called sRAGE; Receptor for Advanced Glycation Endproducts
T3 sequence (Q15109 24-344 limits assumed): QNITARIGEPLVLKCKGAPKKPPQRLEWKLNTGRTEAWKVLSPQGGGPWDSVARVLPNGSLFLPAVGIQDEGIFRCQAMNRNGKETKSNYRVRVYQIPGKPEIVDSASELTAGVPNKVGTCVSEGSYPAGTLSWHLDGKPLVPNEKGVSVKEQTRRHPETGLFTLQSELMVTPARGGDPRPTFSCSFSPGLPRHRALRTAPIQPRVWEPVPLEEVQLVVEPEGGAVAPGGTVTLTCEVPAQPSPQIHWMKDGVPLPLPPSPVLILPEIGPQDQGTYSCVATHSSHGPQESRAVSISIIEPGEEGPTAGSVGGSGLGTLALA

T1 sequence (P02746 28-253, chain 2 of 2): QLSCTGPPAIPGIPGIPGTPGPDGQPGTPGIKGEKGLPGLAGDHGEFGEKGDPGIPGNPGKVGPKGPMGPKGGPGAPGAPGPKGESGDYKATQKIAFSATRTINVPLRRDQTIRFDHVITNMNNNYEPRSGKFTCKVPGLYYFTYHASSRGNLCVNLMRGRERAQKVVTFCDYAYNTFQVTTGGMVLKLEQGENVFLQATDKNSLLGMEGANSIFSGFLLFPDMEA
T1 sequence (P02747 29-245, chain 3 of 2): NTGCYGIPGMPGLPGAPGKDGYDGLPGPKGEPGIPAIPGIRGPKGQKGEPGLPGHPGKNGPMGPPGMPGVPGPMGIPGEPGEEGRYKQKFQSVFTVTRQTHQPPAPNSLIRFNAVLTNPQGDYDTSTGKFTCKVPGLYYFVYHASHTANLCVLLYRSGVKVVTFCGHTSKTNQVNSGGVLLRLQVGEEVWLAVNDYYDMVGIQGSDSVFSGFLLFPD
T2 sequence (Q15109 23-404): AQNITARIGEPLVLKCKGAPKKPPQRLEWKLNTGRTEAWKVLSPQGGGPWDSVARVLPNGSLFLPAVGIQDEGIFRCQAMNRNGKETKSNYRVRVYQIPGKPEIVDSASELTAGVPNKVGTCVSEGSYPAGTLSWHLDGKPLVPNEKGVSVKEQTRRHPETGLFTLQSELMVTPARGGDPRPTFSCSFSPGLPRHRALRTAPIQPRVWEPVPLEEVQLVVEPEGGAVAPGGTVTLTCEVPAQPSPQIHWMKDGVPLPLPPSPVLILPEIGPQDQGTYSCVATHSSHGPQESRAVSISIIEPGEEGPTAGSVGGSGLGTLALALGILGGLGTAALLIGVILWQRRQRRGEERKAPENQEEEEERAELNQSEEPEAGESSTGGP

B1: Disulfide HMGB1 (ligand, UniProt P09429 1-215, looked up)
chain: MGKGDPKKPRGKMSSYAFFVQTCREEHKKKHPDASVNFSEFSKKCSERWKTMSAKEKGKFEDMAKADKARYEREMKTYIPPKGETKKKFKDPNAPKRPPSAFFLFCSEYRPKIKGEHPGLSIGDVAKKLGEMWNNTAADDKQPYEKKAAKLKEKYEKDIAAYRAKGKPDAAKKGVVKAEKSKKKKEEEEDEEDEEDEEEEEDEEDEDEEEDDDDE
modifications: disulfide bond between C23 and C45, with a free cysteine at C106
notes: also called disulfide form of HMGB1
Kd [1]: 210 nM

B2: All-thiol HMGB1 (ligand, not shown: small tags and cut ends)
chain: B1 chain
modifications: All-thiol form: C23, C45 and C106 all stand as free reduced thiols, with no C23-C45 disulfide. The letters are unchanged.
notes: Analyte in the SPR assays on immobilised C1q; also called reduced HMGB1
Kd [1]: 1060 nM

B3: Recombinant HMGB1 (Calmodulin Binding Protein Epitope, Cbp tagged) (ligand, human, UniProt P09429 1-215, looked up, not shown: small tags and cut ends)
chain: B1 chain
notes: also called High Mobility Group Box 1
Kd [2]: 200 nM

Continued, values first:

binding result (RAGE on human monocytes): no binding
B4: LAIR-1 on human monocytes (receptor, UniProt Q6GTX8 22-287, looked up)
chain: QEEDLPRPSISAEPGTVIPLGSHVTFVCRGPVGVQTFRLERDSRSTYNDTEDVSQASPSESEARFRIDSVREGNAGLYRCIYYKPPKWSEQSDYLELLVKESSGGPDSPDTEPGSSAGPTQRPSDNSHNEHAPASQGLKAEHLYILIGVSVVFLFCLLLLVLFCLHRQNQIKQGPPRSKDEEQKPQQRPDLAVDVLERTADKATVNGLPEKDRETDTSALAAGSSQEVTYAQLDHWALTQRTARAVSPQSTKPMAESITYAAVARH
notes: whole, on cells; also called Leukocyte-Associated Ig-like Receptor 1; CD305

binding result [3]: no binding
B5: C1q tail (C1q collagen-like tail) purified from whole C1q (other)
chain 1: EDLCRAPDGKKGEAGRPGRRGRPGLKGEQGEPGAPGIRTGIQGLKGDQGEPGPSGNPGKVGYPGPSGPLGARGIPGIKGTKGSPGNI
chain 2: not shown
chain 3: not shown
notes: domain: collagen-like tail; Fragment prepared from whole serum C1q 'as previous described (22)'; also called C1q collagen tail
